Test results taken from article PMC2965252.

Molecular target: SF2/ASF (ΔRS domain) (UniProt Q07955 1-196)
Assay: EMSA

Chain of SF2/ASF (ΔRS domain) (Q07955 1-196, stated change not applied): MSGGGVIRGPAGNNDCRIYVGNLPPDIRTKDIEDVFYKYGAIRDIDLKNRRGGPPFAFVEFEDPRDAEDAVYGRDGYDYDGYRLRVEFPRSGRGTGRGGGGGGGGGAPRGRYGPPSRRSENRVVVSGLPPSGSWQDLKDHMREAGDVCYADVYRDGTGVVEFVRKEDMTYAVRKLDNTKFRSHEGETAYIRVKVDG

Binder: GUGAUCAGGAUGCCCUUCUC (ssRNA) [CD200 exon 2 RNA with wild-type ESE]
- binding result: binds
